# Side chains are listed from the residue outwards. Ends that are not written are not given here. * marks the point of attachment. Biotin = O=C1N[C@H]2[C@H](CS[C@H]2CCCCC(=O)*)N1; Ahx = NCCCCCC(=O)O
# T1: purified I-Ed class II glycoprotein (Mus musculus, UniProt P01904+P01915)
# T1 sequence (P01904 26-255): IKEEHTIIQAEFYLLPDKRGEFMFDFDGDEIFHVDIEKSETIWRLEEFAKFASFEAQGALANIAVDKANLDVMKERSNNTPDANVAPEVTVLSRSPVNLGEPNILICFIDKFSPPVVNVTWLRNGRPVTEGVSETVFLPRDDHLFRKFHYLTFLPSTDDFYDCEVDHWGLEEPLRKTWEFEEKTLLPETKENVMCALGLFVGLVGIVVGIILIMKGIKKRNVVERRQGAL
# T1 sequence (P01915 27-264 limits assumed): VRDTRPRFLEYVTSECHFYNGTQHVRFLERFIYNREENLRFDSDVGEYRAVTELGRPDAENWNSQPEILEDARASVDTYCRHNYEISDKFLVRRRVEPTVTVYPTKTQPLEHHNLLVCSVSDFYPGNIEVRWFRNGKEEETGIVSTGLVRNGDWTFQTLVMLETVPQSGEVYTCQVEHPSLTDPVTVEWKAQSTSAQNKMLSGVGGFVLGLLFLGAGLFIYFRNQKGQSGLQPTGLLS
# Assays:
# [1] = target: T1, purified I-Ed class II glycoprotein; assay type: binding
# [2] = test system: purified I-Ad class II glycoprotein; assay type: binding, mouse; settings: immunoassay
# [3] = target: I-Ed class II MHC glycoprotein, purified (mouse (endogenous in A20 B lymphoma)); assay: ELISA
molecule,measurement,setting,value
"FISEAIIHVLHSR [Myo(106-118), reference compound]",inhibition of binding of biotin-HEL(104-120) to I-Ed by unlabeled peptide,"[1]; 2 μM biotin-HEL(104-120), 24 h, at higher competitor concentrations",partially inhibited
biotin-Myo(106-118): Myo(106-118) biotinylated with biotin-amidocaproate N-hydroxysuccinimide ester at the free α amino group ({Biotin-Ahx}-FISEAIIHVLHSR),binding to I-Ad (in words),[2],binds well
same,optimum pH of binding to I-Ed,"[1]; 40 h at various pHs, 2 μM biotin-HEL(104-120) or 10 μM biotin-Myo(106-118)",more acidic pH
same,binding to I-Ed (in words),[1]; immunoassay,weakly
{Biotin-Ahx}-GMNAWVAWRNRCK([Ahx-Biotin])GTDVY [biotin-HEL(104-120)],Kd,[3],2330 nM

# — paper PMC2118993 (The Journal of Experimental Medicine, 1991)
